Common to all, as to experiment: ITC
(In ITC the heat of successive injections is recorded.)

The target in assay [1] is untagged β′-COP residues 1–604 (yeast (S. cerevisiae)) (UniProt P41811).
Assay [2] has as its target C-terminal β′-COP propeller (residues 300–604), untagged (yeast (S. cerevisiae)) (UniProt P41811).
Assay [3] addresses β′-COP R13A/K15A/R59A (RKR mutant), residues 1–604, untagged (yeast (S. cerevisiae)) (UniProt P41811).

Bounds are passed on as bounds.

untagged β′-COP residues 1–604 (yeast (S. cerevisiae)), sequence (P41811 1-604): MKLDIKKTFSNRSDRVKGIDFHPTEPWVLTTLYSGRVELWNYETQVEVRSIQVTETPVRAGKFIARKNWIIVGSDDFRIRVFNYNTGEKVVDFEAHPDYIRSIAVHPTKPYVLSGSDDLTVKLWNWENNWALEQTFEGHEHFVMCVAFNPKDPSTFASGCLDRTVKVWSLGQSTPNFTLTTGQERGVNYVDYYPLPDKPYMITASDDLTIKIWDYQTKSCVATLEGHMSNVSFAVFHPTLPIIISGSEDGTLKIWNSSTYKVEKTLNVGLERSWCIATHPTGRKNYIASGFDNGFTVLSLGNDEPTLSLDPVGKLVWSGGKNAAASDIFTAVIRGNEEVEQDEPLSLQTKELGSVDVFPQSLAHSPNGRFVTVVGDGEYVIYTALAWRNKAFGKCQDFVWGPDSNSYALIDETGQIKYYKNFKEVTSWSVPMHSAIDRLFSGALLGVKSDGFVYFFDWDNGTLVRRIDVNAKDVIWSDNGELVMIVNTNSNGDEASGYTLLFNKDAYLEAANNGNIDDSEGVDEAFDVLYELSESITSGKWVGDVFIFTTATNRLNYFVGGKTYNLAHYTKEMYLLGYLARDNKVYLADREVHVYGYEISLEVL
untagged Glo3 BoCCS fragment (residues 230–300), sequence (P38682 230-300): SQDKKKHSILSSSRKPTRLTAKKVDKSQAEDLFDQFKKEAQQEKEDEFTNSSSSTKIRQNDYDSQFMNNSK
untagged Glo3 residues 230–290, sequence (P38682 230-290): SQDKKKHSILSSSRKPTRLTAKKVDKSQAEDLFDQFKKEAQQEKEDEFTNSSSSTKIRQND
C-terminal β′-COP propeller (residues 300–604), untagged (yeast (S. cerevisiae)), sequence (P41811 300-604): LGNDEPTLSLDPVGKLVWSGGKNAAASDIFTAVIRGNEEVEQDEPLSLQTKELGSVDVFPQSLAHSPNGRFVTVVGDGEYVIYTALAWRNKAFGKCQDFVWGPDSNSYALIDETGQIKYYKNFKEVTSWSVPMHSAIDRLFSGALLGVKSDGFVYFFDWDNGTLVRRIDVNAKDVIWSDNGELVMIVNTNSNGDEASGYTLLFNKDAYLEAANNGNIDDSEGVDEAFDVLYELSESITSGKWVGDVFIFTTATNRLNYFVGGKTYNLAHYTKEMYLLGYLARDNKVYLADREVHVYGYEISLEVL

In the case of “Glo3 fragment lacking N-terminal residues 230–240, untagged (domain or fragment)”, in assay [1], the Kd was over 300 µM.
“full BoCCS Glo3 fragment (residues 208–383), untagged (from UniProt P38682 208-383) (domain or fragment)” displayed a stoichiometry N in assay [1] of 1.
“untagged Glo3 BoCCS fragment (residues 230–300) (from UniProt P38682 230-300) (domain or fragment)” displayed a Kd in assay [2] of under 300 µM.
Take “untagged Glo3 residues 230–290 (from UniProt P38682 230-290) (domain or fragment)”: the fold weaker binding than wild-type β′-COP in assay [3] was found to be 16 fold.

Usually Kd stands for the free concentration of one partner at which half of the binding sites on the other are occupied at equilibrium, for simple one-to-one binding. A higher Kd goes with lower affinity. As usually defined, the stoichiometry N is a count of units in the complex or per binding partner.

For the origin of these results see paper PMC9960064.
